Results from patent US7354735B2, “Nucleic acid encoding fluorescent protein constructs and methods for detecting apoptosis” (Hong Kong University of Science and Technology, priority 2001, dated 2008).

Tests used:
caspase-3 [1] = target: T1, caspase-3 (Homo sapiens, UniProt P42574); assay: Western blot analysis of caspase-3 cleavage of purified FRET probes; format: biochemical; conditions: for cleavage by caspase-3 (Western blot): purified protein incubated with caspase-3, 37 degree C, 1-2 hrs, anti-GFP antibody
T1 sequence (P42574 29-175 limits assumed): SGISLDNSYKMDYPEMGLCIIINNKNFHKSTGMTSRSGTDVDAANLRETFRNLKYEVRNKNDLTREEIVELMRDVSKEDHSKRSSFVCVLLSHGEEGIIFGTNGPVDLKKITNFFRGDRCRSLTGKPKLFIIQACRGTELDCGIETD
T1 sequence (P42574 176-277 limits assumed): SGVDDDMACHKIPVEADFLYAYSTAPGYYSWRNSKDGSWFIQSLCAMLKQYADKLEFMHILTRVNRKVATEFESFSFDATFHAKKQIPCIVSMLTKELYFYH
Method: Purified FRET probes were incubated with caspase-3 in the reaction buffer at 37. degree. C. for 1-2 hrs. The reaction mixtures were separated on a SDS-PAGE and transferred onto a nitrocellulose membrane. The Protein blot was then probed with anti-GFP antibody (CLONTECH™). Acetyl-Asp-Glu-Val-Asp-aldehyde called CHO (AC-DEVD-CHO) is a chemical derivative of SEQ ID NO: 11 and a caspase-3 specific inhibitor.
To determine whether these FRET probes are sensitive to caspase-3 cleavage; the purified proteins were incubated with caspase-3 and then subjected to Western blot analysis. Antibodies were purchased from CLONTECH™.

caspase-3 [2] = target: T1, caspase-3; assay: Spectrofluorometer measurement of FRET emission spectra before and after caspase-3 treatment; format: biochemical; conditions: excitation 433 nm; for YFP (526 nm)/CFP (480 nm) emission ratio after caspase treatment: after incubating with caspase-3; for YFP (526 nm)/CFP (480 nm) emission ratio before caspase treatment: before caspase-3
Method: The excitation wavelength used to excite CFP in the probe was 433 nm. −cpp32: no caspase-3 in the reaction. +cpp32: caspase-3 was added into the reaction.
The fluorescent energy transfer from CYP to YFP in the FRET probes was measured using a spectrofluorometer. When CFP was excited in each probe at the excitation wavelength of 433 nm, very little emission light was detected from the FRET probes at the known emission wavelength for CFP (480 nm). Instead, a significant amount of emitted fluorescent light was detected at the emission wavelength of YFP which peaks at 526 nm (FIG. 4). […] It was then determined whether the FRET effect was sensitive to the caspase cleavage. The FRET probes were treated with caspase-3 and analyzed using a spectrofluorometer. […] As a control, no change for the emission spectrum was observed from the CFP-YFP fusion protein which lacks the substrate sequence (FIG. 4A). Based on spectra similar to FIG. 4, it was determined the YFP (526 nm)/CFP (480 nm) emission ratio for all three FRET probes before and after caspase treatment. This YFP/CFP ratio was used to quantify the FRET effect.

caspase-3 [3] = target: T1, caspase-3; assay: Dosage-dependent caspase-3 cleavage assay; format: biochemical; conditions: 1.28 μg sensor protein, caspase-3 0.3125 ng to 1.28 μg, 1 hour; for sensitivity to caspase-3: normalized YFP/CFP ratio
Method: Same amount of purified sensor A and sensor B protein was incubated with different amount of caspase-3 ranging from 0.3125 ng to 1.28 μg for 1 hr. The emission spectra of both YFP and CFP were measured for each sample at the end of reaction using a spectrofluorometer. The emission ratio (YFP/CFP) of each sample was normalized to the value of the ratio from a mock control with no caspase-3.
To compare the sensitivity of sensor A and sensor B on caspase-3 activity, a dosage-dependent caspase-3 cleavage assay was performed. In this experiment, 1.28 μg amount of the purified sensor A or sensor B protein was incubated with different amount of caspase-3 ranging from 0.3125 ng to 1.28 μg for 1 hour. The emission spectra of both YFP and CFP were measured for each sample at the end of the reaction using a spectrofluorometer. The emission ratio (YFP/CFP) of each caspase reaction was normalized with that of the mock control having no caspase-3 in the reaction.

HeLa cells = assay: Imaging of FRET probe in living HeLa cells during UV-induced apoptosis; format: cell-based
Method: HeLa cells expressing either sensor A or CFP-YFP fusion protein were induced to apoptosis by UV irradiation for 5 min. When the probe was excited at 440 nm, the fluorescent intensity of CFP (at 480±15 nm) and that of YFP (at 535±12.5 nm) from same cell before (A, C) and after (B, D) UV treatment was recorded using a cooled CCD imaging system. The representative ratio images of YFP/CFP are shown here. A significant FRET reduction is seen only in panel B from both cells expressing sensor A, but not in panel D with cells expressing the control fusion protein.
FIG. 7 is a statistic analysis of FRET changes during apoptosis. Images were recorded as described in FIG. 6. The fluorescent intensities of YFP and CFP were then determined from each image. The average values of YFP/CFP from 13 cells expressing sensor A and 9 cells expressing CFP-YFP fusion protein before and after UV-irradiation are plotted here. Nearly 4-fold reduction in the apoptotic cells expressing was found using the FRET probe but not in the control cells expressing the CFP-YFP fusion gene.
To test whether this FRET probe can be used to detect caspase activity in living cells, sensor A was expressed in HeLa cells and measured the FRET effect of the probe in single cells using a cooled CCD imaging system. The fluorescent images of the cell obtained from the emission wavelengths of CFP and YFP were recorded before and after UV treatment. A computer software (Metamorph, Universal Imaging) was used to generate a ratio image of YFP/CFP for each cell under different treatments. […] At 3 hours after the UV treatment, these cells had entered apoptosis. […] The average YFP/CFP emission ratio changes was calculated for 13 apoptotic cells expressing sensor A, and found a nearly 4-fold reduction after UV treatment (FIG. 7).
Recently, sensor A was used to study the dynamics of caspase-3 activation during UV-induced apoptosis in living HeLa cells.

Row | Substance | cleavage of FRET probe (sensor A) by caspase-3 in the presence of inhibitor (caspase-3 [1]; caspase-3 plus inhibitor, Western blot) | cleavage by caspase-3 (Western blot) (caspase-3 [1]) | change of emission spectrum on caspase-3 treatment (caspase-3 [2]) | YFP (526 nm)/CFP (480 nm) emission ratio after caspase treatment (caspase-3 [2]) | YFP (526 nm)/CFP (480 nm) emission ratio before caspase treatment (caspase-3 [2]) | relative sensitivity to caspase-3 (sensor A versus sensor B) (caspase-3 [3]) | sensitivity to caspase-3 (caspase-3 [3]) | reduction of average YFP/CFP emission ratio after UV treatment (HeLa cells; HeLa cells expressing the probe, before and after UV irradiation, 13 cells sensor A, 9 control cells) [fold] | intensity of YFP/CFP ratio image after UV treatment (HeLa cells; HeLa cells, 3 hours after UV treatment) | detection of caspase-3 activation during UV-induced apoptosis (HeLa cells; living HeLa cells)
1 | acetyl-Asp-Glu-Val-Asp-aldehyde [AC-DEVD-CHO, reference compound] | no FRET probe (sensor A) was cleaved | – | – | – | – | – | – | – | – | –
2 | sensor A: CFP-YFP FRET fusion protein with 16 amino acid linker SGLRSGGDEVDGGSNS (SEQ ID NO: 7) containing the caspase-3 recognition motif (left off: small tags and cut ends; large carriers) | – | caspase-3 can cleave almost all | completely changed | 0.59 | 3.02 | slightly more sensitive than sensor B | highly sensitive | ~4 | decease dramatically | clearly detected prior to any visible cell morphological changes
3 | sensor B: CFP-YFP FRET fusion protein with 22 amino acid linker SGLRSGGSGGDEVDGGSGGSNS (SEQ ID NO: 10) containing DEVD (left off: small tags and cut ends; large carriers) | – | caspase-3 can cleave almost all | completely changed | 0.59 | 2.76 | – | highly sensitive | – | – | –
